Tests used:
[1] = LC-MS assay of GH3 conjugation of 2,4-D with Asp or Glu; assay type: biochemical; details: for kcat (hrs−1) 2,4-D-Asp: conjugation of 2,4-D with Asp by recombinant GH3 protein, 2,4-D-Asp product by LC-MS; for kcat (hrs−1) 2,4-D-Asp / kcat (hrs−1) 2,4-D-Glu: 5 mM 2,4-D substrate; for kcat (hrs−1) 2,4-D-Glu: conjugation of 2,4-D with Glu by recombinant GH3 protein, 2,4-D-Glu product by LC-MS; for 2,4-D conjugation activity with Asp or Glu: result in words
Description: (§1) To detect and monitor the formation of acyl conjugates with 2,4-D or dicamba, a sensitive LC-MS method was developed using the respective amino acid conjugate standards. […] The reaction was performed at 30° C., 105 rpm, for 3 hours in buffer containing 20 mM Tris-HCl (pH 8.0), 5 mM MgCl2, 5 mM auxin (IAA, 2,4-D or dicamba), 5 mM ATP, 5 mM Asp or Glu, 1 mM DTT and 44 to 164 μg/mL purified GH3 protein in 100 μL reaction. After 3 hours of reaction, 400 μL 100% MeOH was added to the reaction mixture for protein precipitation. The supernatant was diluted 20× in water and then analyzed by LC-MS (AB Sciex 4000 QTrap coupled with Shimadzu Nexera UHPLC) using a Phenomenex Luna 3 μm Phenyl-Hexyl (00B-4256-Y0) column. The concentration of the conjugates was calculated based on the standards. Kinetic parameters were estimated by fitting initial velocity values to the Michaelis-Menten equation.
(§2) The GH3 superfamily conjugase activity analysis of IAA, 2,4-D or dicamba with Asp or Glu was done using LC-MS to analyze the final conjugate products as described in Example 1. Protein sequences of GH3 homologs (Table 3) were obtained from public databases (NCBI, http://www.ncbi.nlm.nih.gov/) by Blast analysis of AtGH3.17 protein sequence (accession # Q9FZ87). Coding sequences were designed for optimal expression in E. coli based on the protein sequences and synthesized. Synthesized coding sequences along with N-term his-tag coding sequences were cloned into a pET24a-based E. coli expression vector. The E. coli expression vectors were transformed into OverExpress C41(DE3) cells (Lucigen) for protein expression. Recombinant E. coli strains were inoculated into 5 ml LB media supplemented with 40 mg/L kanamycin and cultured overnight at 37° C. The overnight culture (0.5 mL) was inoculated into 50 mL LB medium plus 40 mg/L kanamycin and grown at 30° C. until OD600 reached 0.6. The cultures were induced with 0.2 mM IPTG at 16° C., 230 rpm overnight. Cells were harvested by centrifugation at 7,000 rpm for 10 mins. The cell pellet from 50 mL of cell culture was frozen and thawed twice and then lysed in 800 μL lysis buffer A (150 mM NaCl, 50 mM Tris-HCl pH 8.0, 5 mM MgCl2, 10% glycerol) plus 20 mM imidazole, 1 mM DTT, 0.2 mg/ml lysozyme, 1/200 protease inhibitor cocktail (EMD set3, EDTA free) and 1/2000 endonuclease. Lysate was then centrifuged at 13,000 rpm for 30 min at 4° C. Supernatant was loaded onto 200 μL Ni-NTA columns pre-equilibrated with buffer A with 20 mM imidazole at 4° C. Each column was then washed with (1) 2×800 μL of buffer A with 10 mM imidazole, (2) 2×800 μL of buffer A with 20 mM imidazole and (3) 2×200 μL of buffer A with 50 mM imidazole. Protein was eluted with 200 μL of buffer A with 250 mM imidazole. The concentration was measured by Bradford assay. Purified protein was used in conjugation reaction assays as described in example 1.

[2] = LC-MS assay of GH3 conjugation of IAA with Asp or Glu; assay type: biochemical; details: for kcat (hrs−1) IAA-Asp: conjugation of IAA with Asp by recombinant GH3 protein, IAA-Asp product by LC-MS; for kcat (hrs−1) IAA-Glu: conjugation of IAA with Glu by recombinant GH3 protein, IAA-Glu product by LC-MS; for IAA conjugation activity with Asp or Glu: result in words
Description: as §1, §2

B1: AtGH3-9: GH3 protein, accession O82243 (protein, listed as Arabidopsis thaliana)
chain: MDVMKLDHDSVLKELERITSKAAEVQDNILRGILERNKDTEYLSKYMNGSKDVLEFKRAVPIIIYKDIYPYIQRIANGEDSSLITGHSITEILCSSGTSAGEPKLMPTIPEDLDRRTFLYNLIIPIVNKYITGLDKGKAMYLNFVKAETSTPCGLPIRAVLTSYYKSKHFQCRPYDPFNDLTSPIQTILCEDSNQSMYCQLLAGLIHRHKVMRLGAVFASAFLRAISYLEKKWSQLCEDIRTGSLNPMITDPGCQMAMSCLLMSPNPELASEIEEICGRSSWKGILCQLWPKAKFIEAVVTGSMAQYIPALEFFSQGKIPLVCPMYASSETYFGVNVEPLSKPSDVVFTLLPNMCYFEFIPLGKNGTLSFDLDDDEQVPCDKVVDLVNVKLGRYYELVVTTFAGLYRYRIGDVLQVAGFYNGAPQFRFICRRNVVLSIDLDKTNEEDLHRSITLAKKKLGSNAFLAEYTSYADTSSVPGHYVLFWEIQGHLEPKLMEECCVAVEEELDYIYRQCRTKERSIGALEIRVVKPGTFEKLMDLIISQGGSFNQYKTPRCVKSNSATFKLLNGHVMASFFSPRDPTWVP
For B1, which “kcat (hrs−1) 2,4-D-Asp” value [1] is on record?
Its value is 0.000 h⁻¹.

And the “kcat (hrs−1) 2,4-D-Glu” value [1]?
Its value is 0.005 h⁻¹.

What about the “2,4-D conjugation activity with Asp or Glu” value (“2,4-D conjugation activity” below) [1] of the same molecule?
Its value is 2,4-D conjugases.

And the “kcat (hrs−1) IAA-Asp” value [2]?
The value was 0.000 h⁻¹.

What about the “kcat (hrs−1) IAA-Glu” value [2] of the same molecule?
The value was 0.000 h⁻¹.

What about the “IAA conjugation activity with Asp or Glu” value [2] of the same molecule?
The value was “IAA-inactive”.

B2: SmXP_002983845: GH3 protein, accession XP_002983845 (protein, listed as Selaginella moellendorffii)
chain: MENEQLLLEKLESSSWSPGEAQDKVLAEILEKNAATDYFNRHGLRAATKEVFRQRAPVIEYEDIKDEINRIADGEAATLLCANPIADMFTSSGTSGGAHKLFPKVEGHYAVSKYFFDLATALLNRDLPGLRTGKALYFLYVRSGRKTPGGLPAYPALTGYYNSLEFRNRPFDPSNDYTSPLEVILCTDSVQASYCHLLCGLIHARDVTKLGCFFASVFVRSIRCLEAWWQELSRDIRTGTLSERVVDPACREAVEKILRPDPELANVIDEACSSGSLKGIVRKLWPSAKAIDTVVTGAMEQYVGEVDYLTDGLPIASMIYASSESFFGVNLKPLCEPSQISYMFLPETSYYEFLPVARSEEKASREEPVELVDVEQGHEYELVITTNAGLYRYRMGDVLRVEGFHNKAPLFSFVCRTNVLLSIDSDKTDEKELQTAVMNAFAALRNGVTSKEGEAIRLTDYTSYADLSSNPPHYVIYWELSSELHLEPEKAGECCYKMEESLSVVYHRGRMERSIGALELRLVTPGTFNRIADDAASRGGSVSQFKLPRCIKKNATRMLEIVESGVYQQYFSPRAPKY
What does the source list for B2?
kcat (hrs−1) 2,4-D-Asp [1]: 0.090 h⁻¹; kcat (hrs−1) 2,4-D-Glu [1]: 0.052 h⁻¹; 2,4-D conjugation activity with Asp or Glu [1]: 2,4-D conjugases; kcat (hrs−1) IAA-Asp [2]: 0.000 h⁻¹; kcat (hrs−1) IAA-Glu [2]: 0.000 h⁻¹; IAA conjugation activity with Asp or Glu [2]: IAA-inactive

B3: OsGH3-7: GH3 protein, accession Q654M1 (protein, listed as Oryza sativa)
chain: MALLLPEFDPADVRAGRDLIHRLTADAAGIQRGVLREILSRNSGTEYLRRFLGGAAGDDDDVRDAFKRRVPVSGYEDVKPYVDRVASGGEPSSALLCSDPITCLSRSSGTSGGQQKLLPSTAEELDRKVFFYAVQALVRNMSLHTDHGEDDDGGGGEGMYLMFAFHGDRTLSGLPIQSALTTYYHSRQFQECDIGGFDKCTSPLEAILCPYGEQSMYCQLLCGLLHRCRVDRVGASFAAGLVRGIKFLENHWEEMCFNIRSGQLSDWITHTPLRDAVTGQYLQGSNPALADEIASECARKPWDGIVRRLWPRARYIRTIVTGSMSQYIPILEVYGGGLPLVSPIYASTECAAGINLRPLDPPSHVSYALLPNIAYFEFLEVMDENGEKVQGTTRLDDNLGEVKVVDLVDVKVGRCYELIVTTFAGLYRYRVGDLFTVSGFYNATPLFHFSGRHDVILSIDYEKISEEDLLNAIAETDKFHLRPLGYMLVGSTAYADISTLPGHYILFWELTNTCDSNVAIDIDQTAMEKCCLAVEDHFDEMYRKIRHRGSISALEIRILSHGAFDALMDFFVSRGTSASQYKTPTAIRSKEAMMVLEERVVGRFFSQATPSCRSAEFERR
With B3 as the molecule, how does the “kcat (hrs−1) 2,4-D-Asp” value [1] read?
Its value is 0.000 h⁻¹.

And the “kcat (hrs−1) 2,4-D-Glu” value [1]?
Its value is 0.028 h⁻¹.

And the “2,4-D conjugation activity” value [1]?
Its value is 2,4-D conjugases.

What about the “kcat (hrs−1) IAA-Asp” value [2] of the same molecule?
The value was 0.000 h⁻¹.

What about the “kcat (hrs−1) IAA-Glu” value [2] of the same molecule?
Its value is 0.000 h⁻¹.

What about the “IAA conjugation activity with Asp or Glu” value [2] of the same molecule?
Its value is “IAA-inactive”.

B4: AIGH3-9: GH3 protein, accession EFH58389 (protein, listed as Arabidopsis lyrata)
chain: MDVMKLDYNYKGGNALTELERITSKAAEVQDNILCGILERNKDTEYLSKYMKGSKDVVEFKRSVPIITYKDIYPYIQRIANGEDSSLITGHPITEILCSSGTSAGEPKLMPTISEDLDRRTFLYNLIIPIVNKYIPGLDKGKAMYLNFVKAETSTPCGLPIRAVLTSYYKSKHFQCRPYDPFNDLTSPIQTILCEDSNQSMYCQLLAGLIHRHKVMRLGAVFASAFLRAISYLEKKWSQLCEDIRTGRLNPMITDPGCQIAMSCLLTSPDPELASEIEEICSRSSWKGILCHLWPRAKFIEAVVTGSMAQYIPALEFFGQGKIPLVCPMYASSETYFGVNVEPLSKPSDVVFTLLPNMCYFEFIPLGKNGALSFDLDDDEQVPCDKVVDLVNVKLGRYYELVVTTFAGLYRYRIGDVLQVAGFYNEAPQFRFICRRNVVLSIDLDKTNEEDLHRSITLAKKKLGSNAFLAEYTSYADTSSVPGHYVLFWEIQGHLEPKLMEGCCVAVEEELDYIYRQCRTKERSIGALEIRVVKPGTFEKLMDLIISQGGSFNQYKTPRCVKSNSATFKLLNGHVTASFFSPRDPTWVA
For B4, which “kcat (hrs−1) 2,4-D-Asp” value [1] is on record?
The value was 0.000 h⁻¹.

And the “kcat (hrs−1) 2,4-D-Glu” value [1]?
The value was 0.015 h⁻¹.

What about the “2,4-D conjugation activity” value [1] of the same molecule?
Its value is 2,4-D conjugases.

And the “kcat (hrs−1) IAA-Asp” value [2]?
The value was 0.000 h⁻¹.

And the “kcat (hrs−1) IAA-Glu” value [2]?
Its value is 0.000 h⁻¹.

What about the “IAA conjugation activity with Asp or Glu” value [2] of the same molecule?
The value was “IAA-inactive”.

B5: SmXP_002986992: GH3 protein, accession XP_002986992 (protein, listed as Selaginella moellendorffii)
chain: MEDFEAVCKNAVQAQEEALVQILQRNGSCHYLQRFGQPLCLKSFKTQLPIISYDNISPELQQIADHGTSHLLLGCDPILYFSFSSGTSSGKHKILPQTNCGYSLLARAYASSNAYRDEVFPLESTKPIGLHFVYSGEQYKAKSGLLLGAGSTNYYKSEAYNQEAETLATPYEALLAGSDWQQTTYCHLLCGLVQRHKIEFIHATFAYTLSEAFRLLESDWKILCEDISARRVSESKVTDEKLRVPVLKLMERELRGKDSSQVAREISEIFVTSKESRWSGLLPLLWPRAKYVHTVVTGAMEPYIPVLKKYAGDKLAIVGFDYSASEGYLGINMRPATPPEEVVFTLIPYTMFFEFIPVDPEEVPDHQQGETLGFKDLQVGKQYELVVTTFEGLYRYRIGDVVKVTGFHHESPIVAFSYRKNAVLSINAEKVDEQELQKVVMGSAGPLEIANFTSCADFATKERPHYVIYWELKNDGDNSRHEELRDSCNALDRGFNAAYLVGRVDKTLGALELVTVKQGTFEKLMEKAIESGASASQYKTPRCIKSPALLELLDQGAIGRYTSSEDISSLLAEDWKPSVIHGL
Which results are given for B5?
kcat (hrs−1) 2,4-D-Asp [1]: 0.000 h⁻¹; kcat (hrs−1) 2,4-D-Glu [1]: 0.006 h⁻¹; 2,4-D conjugation activity with Asp or Glu [1]: 2,4-D conjugases; kcat (hrs−1) IAA-Asp [2]: 0.000 h⁻¹; kcat (hrs−1) IAA-Glu [2]: 0.000 h⁻¹; IAA conjugation activity with Asp or Glu [2]: IAA-inactive

Source: US20150351390A1, “COMPOSITIONS AND METHODS FOR AUXIN-ANALOG CONJUGATION” (PIONEER HI-BRED INTERNATIONAL, INC., priority 2012, published 2015)
